The text below walks through data of patent publication US20100196267A1.

Test [1] deals with human serum complement (human). Nature of the test: cell-based or functional assay.
Test [2] deals with HLA-DR (human). Nature of the test: indirect flow cytometry on Namalwa cells, FITC-GAM 2nd Ab (none 2.91); control antibody. (In general: In flow cytometry, cells or beads pass a laser one at a time.)
For test [3], the target named is HLA-DR (human). Nature of the test: indirect FACS, FITC-GAH Fc 2nd Ab, Raji cells (none 6.8); control antibody.
In test [4] the target is HLA-DR (human). Nature of the test: indirect FACS, FITC-GAH Fc 2nd Ab, Daudi cells (none 3.1); control antibody.
For test [5], the target named is HLA-DR (human). Nature of the test: indirect FACS, FITC-GAH Fc 2nd Ab, Ramos cells (none 3.1); control antibody.
Test [6] has as its target HLA-DR (human). Nature of the test: indirect FACS, FITC-GAH Fc 2nd Ab, Namalwa cells (none 2.5); control antibody.
The target of test [7] is HLA-DR (human). Nature of the test: indirect FACS, FITC-GAH Fc 2nd Ab, SU-DHL-6 cells (none 4.6); control antibody.
The target of test [8] is HLA-DR (human). Nature of the test: indirect FACS, FITC-GAH Fc 2nd Ab, WSU-FSCCL cells (none 2.6); control antibody.
The target of test [9] is antigen on dog lymphoma cells recognised by L243 and hL243 (dog). Nature of the test: flow cytometry on dog lymphoma aspirate, humanized MAbs (none 3.24); control antibody.
The target is the same in test [10]. Nature of the test: flow cytometry on dog lymphoma aspirate, humanized MAbs (none 4.48); control antibody.
In test [11] the target is HLA-DR (human). Nature of the test: indirect flow cytometry on Namalwa cells, FITC-GAH 2nd Ab (none 2.52); control antibody.
The target of test [12] is HLA-DR (human). Nature of the test: indirect flow cytometry, FITC-GAH Fc 2nd Ab, RL cells (none 2.4); negative control antibody.
Test [13] concerns the target HLA-DR (human). Nature of the test: indirect flow cytometry, FITC-GAH Fc 2nd Ab, Raji cells (none 6.9); negative control antibody.
In test [14] the target is HLA-DR (human). Nature of the test: indirect flow cytometry, FITC-GAH Fc 2nd Ab, Daudi cells (none 3.2); negative control antibody.
Test [15] addresses HLA-DR (human). Nature of the test: indirect flow cytometry, FITC-GAH Fc 2nd Ab, Ramos cells (none 3.1); negative control antibody.
In test [16] the target is HLA-DR (human). Nature of the test: indirect flow cytometry, FITC-GAH Fc 2nd Ab, Namalwa cells (none 2.6); negative control antibody.
For test [17], the target named is HLA-DR (human). Nature of the test: indirect flow cytometry, FITC-GAH Fc 2nd Ab, SU-DHL-6 cells (none 4.6); negative control antibody.
Test [18] addresses HLA-DR (human). Nature of the test: indirect flow cytometry, FITC-GAH Fc 2nd Ab, WSU-FSCCL cells (none 2.7); negative control antibody.

B1: hL243γ1 (antibody, human IgG1, V domains shown)
VH: QVQLQQSGSELKKPGASVKVSCKASGFTFTNYGMNWVKQAPGQGLKWMGWINTYTREPTYADDFKGRFAFSLDTSVSTAYLQISSLKADDTAVYFCARDITAVVPTGFDYWGQGSLVTVSS
VL: DIQLTQSPSSLSASVGDRVTITCRASENIYSNLAWYRQKPGKAPKLLVFAASNLADGVPSRFSGSGSGTDYTFTISSLQPEDIATYYCQHFWTTPWAFGGGTKLQIKR
In [1], B1 gave a complement-mediated cytotoxicity (CDC) on Daudi cells, resazurin viability, EC50 of 2.6 nM.

B2: MN14 (murine) (antibody, from a related filing, V domains shown)
VH: EVKLLESGGGLVQSGGSLKLSCAASGFDFTTYWMSWVRQAPGKGLEWIGEIHPDSSTINYAPSLKDKFIVSRDNAKNTLYLQMSKVRSEDTALYYCASLYFGFPWFAYWGQGTPVTVSA
VL: EIQLTQSHKMMSTSVGDRVSITCKASQDVGTSVAWYQQRPGQSPKLLIYWTSTRHTGVPDRFTGSVSGTDFTLTITNVQSEDLADYFCQQYSLYRSFGGGTKLEIK
For the molecule B2, the GEO MEAN Fluorescence with HLA-DR (human) [2] was found to be 3.32.

B3: hMN-14 (antibody, INN chains, looked up, V domains shown)
VH: EVQLVESGGGVVQPGRSLRLSCSASGFDFTTYWMSWVRQAPGKGLEWIGEIHPDSSTINYAPSLKDRFTISRDNAKNTLFLQMDSLRPEDTGVYFCASLYFGFPWFAYWGQGTPVTVSS
VL: DIQLTQSPSSLSASVGDRVTITCKASQDVGTSVAWYQQKPGKAPKLLIYWTSTRHTGVPSRFSGSGSGTDFTFTISSLQPEDIATYYCQQYSLYRSFGQGTKVEIKR
Regarding B3, the Geometric Mean Fluorescence with HLA-DR (human) [3] came to 6.96; in the test with HLA-DR (human) [4], 3.16; with HLA-DR (human) [5] it was 3.13; in the test with HLA-DR (human) [6] it was 2.36; with HLA-DR (human) [7], 4.94; with HLA-DR (human) [8], 2.66. For the same molecule, the Geometric Mean Fluorescence with HLA-DR (human) [12] was 2.8; with HLA-DR (human) [13] it was 7; in the test with HLA-DR (human) [14], 3.2; with HLA-DR (human) [15], 3.1; with HLA-DR (human) [16] it was 2.4; in the test with HLA-DR (human) [17], 4.9. The Geometric Mean Fluorescence in the test with HLA-DR (human) [18] turned out to be 2.7. The molecule further returned a Mean FL in [9] of 3.24. The molecule further showed a % in test [10] of 4.63%. This molecule also showed a GEO MEAN Fluorescence in the test with HLA-DR (human) [11] of 2.49.
